Results published in the supplement of paper PMC10567573.
± gives the standard deviation.

Test: protein stability index of a GFP-peptide fusion (GPS, HEK-293T) (PSI 1-6); higher = more stable
Details: c terminus: a fixed tail appended
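Also: 24-mer peptide tiles fused after GFP, lentivirally expressed, FACS-sorted into six equal bins by GFP/DsRed ratio, decoded by Illumina sequencing, PSI is the read-weighted mean bin number.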

## ETTERMKCLYYLYATLDLNAVKYV [PDS5B]
treatment: DMSO
  protein stability index: 2.88 ± 0.3
treatment: MLN4924 1 uM, 8 h
  protein stability index: 3.12 ± 0.47

## EEDSFYRSSYPQQQGLGASYRTES [TBX5]
treatment: DMSO
  protein stability index: 4.37 ± 0.2
treatment: MLN4924 1 uM, 8 h
  protein stability index: 4.22 ± 0.15

## GYYSEKLEAIQLDGEILFSLLQKV [TBC1D10A]
treatment: DMSO
  protein stability index: 2.44 ± 0.59
treatment: MLN4924 1 uM, 8 h
  protein stability index: 2.53 ± 0.32

## GLEEADAEVSVISEADPQALLQAM [FBF1]
treatment: DMSO
  protein stability index: 5.06 ± 0.26
treatment: MLN4924 1 uM, 8 h
  protein stability index: 5.05 ± 0.15

## DLLCAQLQLPQLSDLGLLRLCTWL [FANCE]
treatment: DMSO
  protein stability index: 2.53 ± 0.35
treatment: MLN4924 1 uM, 8 h
  protein stability index: 2.78 ± 0.42

## ITWNRVVLLHGPPGTGKTSLCKAL [TRIP13]
treatment: DMSO
  protein stability index: 2.32 ± 0.58
treatment: MLN4924 1 uM, 8 h
  protein stability index: 2.13 ± 0.2

## ADTKKRHTPRGHAESTSNRQPRKQ [SMOC2]
treatment: DMSO
  protein stability index: 5.34 ± 0.2
treatment: MLN4924 1 uM, 8 h
  protein stability index: 5.29 ± 0.15

## AISPGRFPEALDELPLPPFLQPLD [ANKRD9]
treatment: DMSO
  protein stability index: 3.91 ± 0.32
treatment: MLN4924 1 uM, 8 h
  protein stability index: 3.96 ± 0.18

## LQEVLSSDENGGTYVSPPGNEEEE [DDIT3]
treatment: DMSO
  protein stability index: 5.63 ± 0.27
treatment: MLN4924 1 uM, 8 h
  protein stability index: 5.42 ± 0.3

## SKSTQFEYAWCLVRSKYNDDIRKG [FIS1]
treatment: DMSO
  protein stability index: 2.26 ± 0.34
treatment: MLN4924 1 uM, 8 h
  protein stability index: 2.55 ± 0.56

## ARLKKVLIVGAPIWFRVPYSIISL [PTPN9]
treatment: DMSO
  protein stability index: 3.32 ± 0.79
treatment: MLN4924 1 uM, 8 h
  protein stability index: 2.58 ± 1

## MLSLKKYLTEGLLQFTILLSLIGV [NFE2L1]
treatment: DMSO
  protein stability index: 3.33 ± 0.27
treatment: MLN4924 1 uM, 8 h
  protein stability index: 2.82 ± 0.47

## ISPWNLPLYLLTWKIAPAMAAGNT [ALDH8A1]
treatment: DMSO
  protein stability index: 3.06 ± 0.53
treatment: MLN4924 1 uM, 8 h
  protein stability index: 3.05 ± 0.62

## MHLNFMDEKDRIITAFYNEARARA [DNAJC4]
treatment: DMSO
  protein stability index: 2.92 ± 0.35
treatment: MLN4924 1 uM, 8 h
  protein stability index: 2.98 ± 0.19

## PAQSHTLQANDVFHKQQWFNCIRA [NET1]
treatment: DMSO
  protein stability index: 2.71 ± 0.38
treatment: MLN4924 1 uM, 8 h
  protein stability index: 2.71 ± 0.3

## LWGRTQEEAEELAKEMSVPFYTSR [GFOD1]
treatment: DMSO
  protein stability index: 3.4 ± 0.18
treatment: MLN4924 1 uM, 8 h
  protein stability index: 3.61 ± 0.32

## TKPSKSAALHIDLCKATSPADALQ [INTS4]
treatment: DMSO
  protein stability index: 3.91 ± 0.1
treatment: MLN4924 1 uM, 8 h
  protein stability index: 3.84 ± 0.29

## LDPWFAGSSNVGINRWRFLLQCLE [CRY1]
treatment: DMSO
  protein stability index: 2.5 ± 0.36
treatment: MLN4924 1 uM, 8 h
  protein stability index: 2.54 ± 0.23

## HAGTVYGGVMYISGGITHDTFQKE [KLHL13]
treatment: DMSO
  protein stability index: 2.32 ± 0.24
treatment: MLN4924 1 uM, 8 h
  protein stability index: 2.31 ± 0.22

## MDPGWGQRDVGWAALLILFAASLL [C2CD2L]
treatment: DMSO
  protein stability index: 2.34 ± 0.24
treatment: MLN4924 1 uM, 8 h
  protein stability index: 2.26 ± 0.31

## LMRHMATHSPQKSHQCAHCEKTFN [PLAGL1]
treatment: DMSO
  protein stability index: 3.24 ± 0.3
treatment: MLN4924 1 uM, 8 h
  protein stability index: 3.2 ± 0.28

## SPREGEELKPEDKDPRDPEESKEP [GNAS]
treatment: DMSO
  protein stability index: 5.78 ± 0.14
treatment: MLN4924 1 uM, 8 h
  protein stability index: 5.71 ± 0.26

## LRDVNHEKAMAEWVKQQAEREAEK [SDE2]
treatment: DMSO
  protein stability index: 5.19 ± 0.12
treatment: MLN4924 1 uM, 8 h
  protein stability index: 5.42 ± 0.23

## QSNLEPLSPMTASSFLSFAELFSY [FEM1A]
treatment: DMSO
  protein stability index: 2.26 ± 0.26
treatment: MLN4924 1 uM, 8 h
  protein stability index: 2.42 ± 0.3

## VASLPLDQSDEGSSSQKEESPSTL [MAGEA10]
treatment: DMSO
  protein stability index: 5.65 ± 0.14
treatment: MLN4924 1 uM, 8 h
  protein stability index: 5.64 ± 0.14

## QLREALKILAERVLILETMIGLYE [EMID1]
treatment: DMSO
  protein stability index: 2.31 ± 0.27

## DYTWTEFDEPFLTRNVQSVSIIDT [TRIP13]
treatment: DMSO
  protein stability index: 3.1 ± 0.24
treatment: MLN4924 1 uM, 8 h
  protein stability index: 3.19 ± 0.23

## DTANEIGQVLHFENVKDVPFGFQT [SERPINB5]
treatment: DMSO
  protein stability index: 3.74 ± 0.075
treatment: MLN4924 1 uM, 8 h
  protein stability index: 3.99 ± 0.2

## TGSPARLSLRQTGSPGMIYSTRYG [KCNAB2]
treatment: DMSO
  protein stability index: 3.15 ± 0.45
treatment: MLN4924 1 uM, 8 h
  protein stability index: 3.12 ± 0.45

## KIRPDSSRPELLQPLNFVRFYLPL [GLT8D2]
treatment: DMSO
  protein stability index: 2.19 ± 0.42
treatment: MLN4924 1 uM, 8 h
  protein stability index: 2.17 ± 0.18

## ILDQTTSEDAVGGATLGQTTSEEA [HDAC6]
treatment: DMSO
  protein stability index: 5.42 ± 0.065
treatment: MLN4924 1 uM, 8 h
  protein stability index: 5.5 ± 0.15

## LNGENSDIKICALGEEWSLHKIYL [GMCL1]
treatment: DMSO
  protein stability index: 2.14 ± 0.32
treatment: MLN4924 1 uM, 8 h
  protein stability index: 1.94 ± 0.41

## KALAIILHLLYLLEKVECTPSQEH [FEM1A]
treatment: DMSO
  protein stability index: 1.96 ± 0.35
treatment: MLN4924 1 uM, 8 h
  protein stability index: 1.99 ± 0.13

## FNKGIYDIHVGLRGVPLLEWETEV [CLCN6]
treatment: DMSO
  protein stability index: 2.13 ± 0.32
treatment: MLN4924 1 uM, 8 h
  protein stability index: 2.17 ± 0.44

## PRTSQSEETRVWHRRDGKWQNVHF [CAMK2B]
treatment: DMSO
  protein stability index: 3.29 ± 0.3
treatment: MLN4924 1 uM, 8 h
  protein stability index: 3.39 ± 0.22

## ESSQTDLKLVAHPRAKSKVWKYFG [ZBED1]
treatment: DMSO
  protein stability index: 3.02 ± 0.31
treatment: MLN4924 1 uM, 8 h
  protein stability index: 3.42 ± 0.27

## KRESFLKYKCLLQQLYYTEADYED [IQUB]
treatment: DMSO
  protein stability index: 2.2 ± 0.31
treatment: MLN4924 1 uM, 8 h
  protein stability index: 2.49 ± 0.3

## DAISWYQKKIGAYDQQIWEKSIEQ [PHTF1]
treatment: DMSO
  protein stability index: 2.77 ± 0.037
treatment: MLN4924 1 uM, 8 h
  protein stability index: 2.79 ± 0.34

## GVEVIVRISHTLYDLDKIIELNGG [CRY1]
treatment: DMSO
  protein stability index: 3.29 ± 1.2
treatment: MLN4924 1 uM, 8 h
  protein stability index: 2.57 ± 0.76

## PDGKEMAEEYDEKTSELLVRKWRV [DPCD]
treatment: DMSO
  protein stability index: 4.31 ± 0.23
treatment: MLN4924 1 uM, 8 h
  protein stability index: 4.41 ± 0.11

## LEEEEEEEDLVLTCEDDEDEELGG [ZBTB22]
treatment: DMSO
  protein stability index: 5.57 ± 0.2
treatment: MLN4924 1 uM, 8 h
  protein stability index: 5.56 ± 0.18

## NPYHQPYISRKYFATRPGAIETAM [TPRG1]
treatment: DMSO
  protein stability index: 2.22 ± 0.18
treatment: MLN4924 1 uM, 8 h
  protein stability index: 2.52 ± 0.25

## TYTYTSRPRALPCQRSRYRDSLTQ [RSPH3]
treatment: DMSO
  protein stability index: 3.18 ± 0.23
treatment: MLN4924 1 uM, 8 h
  protein stability index: 3.18 ± 0.14

## VSGINGDIRAKKIASIADVCESMK [HNF4A]
treatment: DMSO
  protein stability index: 3.52 ± 0.15
treatment: MLN4924 1 uM, 8 h
  protein stability index: 3.72 ± 0.31

## QAQQGRSSLVWLFSQLYLYSFISL [MCOLN1]
treatment: DMSO
  protein stability index: 2.86 ± 0.46
treatment: MLN4924 1 uM, 8 h
  protein stability index: 3.09 ± 0.25
